Results from patent US8398967B2, “Particle formulations for use in pharmaceutical compositions” (Intarcia Therapeutics, Inc., priority 2002, dated 2013).

What was measured:
Lipid moisture level = type: physicochemical; conditions: after vacuum at room temperature for 48 hours
Description: The moisture level of the lipid, e.g., DOPC, […], or DMPC, is measured after vacuum at room temperature for 48 hours. Lipid vehicles with lower moisture level can be included in viscous liquid compositions.

[1] = ω-Interferon solubility in non-aqueous liquid solvents; type: physicochemical
Text: Thirteen non-aqueous liquid solvent candidates were identified to develop a solution formulation or a suspension formulation based on solubility of ω-interferon. The solvents at the top, e.g., lauryl lactate, are potential suspension solvents. The character of the solvents changes to potential solution solvents in combination with ω-interferon, e.g., glycerol formal, benzyl benzoate, DMSO, or glycerin.

[2] = solvent 1:1 benzyl benzoate:benzyl alcohol, expected conc 10.00 mg/ml
[3] = solvent NMP, expected conc 25.00 mg/ml
[4] = solvent PEG 400, expected conc 25.00 mg/ml
[5] = solvent benzyl alcohol, expected conc 10.00 mg/ml
[6] = solvent ethanol, expected conc 25.00 mg/ml
[7] = solvent ethyl hexyl lactate, expected conc 10.00 mg/ml

CCCCCCCCCCCCCC(=O)OC[C@H](COP(=O)([O-])OCC[N+](C)(C)C)OC(=O)CCCCCCCCCCCCC [DMPC, dimyristoylphosphatidylcholine]
Avg. Moisture (Lipid moisture level): 0.6%

CCCCCCCC/C=C\CCCCCCCC(=O)OC[C@H](COP(=O)([O-])OCC[N+](C)(C)C)OC(=O)CCCCCCC/C=C\CCCCCCCC [DOPC, 1,2-Dioleoyl-sn-glycero-3-phosphatidylcholine]
Avg. Moisture (Lipid moisture level): 0.6 ± 0.2%

ω-interferon
solubility ([1]; in the solvents that were combined with DOPC to form suspensions): less than 0.1 mg/mL
Concentration by SEC [1, 2]: 0.00 mg/mL
Concentration by UV [1, 2]: <0.1 mg/mL
Concentration by rp-HPLC [1, 2]: 0.00
Concentration by SEC [1, 3]: 0.00 mg/mL
Concentration by UV [1, 3]: <0.1 mg/mL
Concentration by rp-HPLC [1, 3]: 0.00
Concentration by SEC [1, 4]: 0.00 mg/mL
Concentration by UV [1, 4]: <0.1 mg/mL
Concentration by rp-HPLC [1, 4]: 0.00
Concentration by SEC [1, 5]: 0.00 mg/mL
Concentration by UV [1, 5]: 0.14 mg/mL
Concentration by rp-HPLC [1, 5]: 0.00
Concentration by SEC [1, 6]: 0.00 mg/mL
Concentration by UV [1, 6]: <0.1 mg/mL
Concentration by rp-HPLC [1, 6]: 0.00
Concentration by SEC [1, 7]: 0.00 mg/mL
Concentration by UV [1, 7]: 0.37 mg/mL
Concentration by rp-HPLC [1, 7]: 0.00
Concentration by UV ([1]; solvent lauryl alcohol, expected conc 10.00 mg/ml): <0.1 mg/mL
Concentration by UV ([1]; solvent lauryl lactate, expected conc 10.00 mg/ml): <0.1 mg/mL
